From patent US20190330344A1 (F STAR THERAPEUTICS, published 2019)

Target: T1, cynomolgus LAG-3 expressed on DO11.10 cells (cynomolgus monkey, UniProt P18627 24-525 (human entry))
T1 chain: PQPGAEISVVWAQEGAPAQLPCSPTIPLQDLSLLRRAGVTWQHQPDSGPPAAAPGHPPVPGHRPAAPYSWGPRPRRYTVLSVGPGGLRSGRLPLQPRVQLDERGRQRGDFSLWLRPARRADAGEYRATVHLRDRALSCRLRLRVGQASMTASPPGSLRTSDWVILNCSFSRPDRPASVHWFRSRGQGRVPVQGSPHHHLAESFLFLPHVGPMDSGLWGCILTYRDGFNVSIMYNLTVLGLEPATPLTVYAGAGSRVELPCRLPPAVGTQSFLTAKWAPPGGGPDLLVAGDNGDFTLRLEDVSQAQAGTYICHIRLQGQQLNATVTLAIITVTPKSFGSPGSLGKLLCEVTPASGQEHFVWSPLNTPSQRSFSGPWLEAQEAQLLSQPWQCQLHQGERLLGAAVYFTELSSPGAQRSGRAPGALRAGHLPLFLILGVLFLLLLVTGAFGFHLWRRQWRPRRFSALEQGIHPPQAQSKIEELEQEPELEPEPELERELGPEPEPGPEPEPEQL
Assay: cell-based or functional assay

EC50 of mIL-2 release, cynomolgus LAG-3 DO11.10 T cell activation assay: 5.6 nM
B1: FS18-7-9/4420LALA (anti-human LAG-3 Fcab FS18-7-9 in mock mAb^2 format comprising the LALA mutation) (bispecific antibody, human IgG1, kappa, L234A L235A)
heavy: EVKLDETGGGLVQPGRPMKLSCVASGFTFSDYWMNWVRQSPEKGLEWVAQIRNKPYNYETYYSDSVKGRFTISRDDSKSSVYLQMNNLRVEDMGIYYCTGSYYGMDYWGQGTSVTVSSASTKGPSVFPLAPSSKSTSGGTAALGCLVKDYFPEPVTVSWNSGALTSGVHTFPAVLQSSGLYSLSSVVTVPSSSLGTQTYICNVNHKPSNTKVDKKVEPKSCDKTHTCPPCPAPEAAGGPSVFLFPPKPKDTLMISRTPEVTCVVVDVSHEDPEVKFNWYVDGVEVHNAKTKPREEQYNSTYRVVSVLTVLHQDWLNGKEYKCKVSNKALPAPIEKTISKAKGQPREPQVYTLPPSWDEPWGEDVSLTCLVKGFYPSDIAVEWESNGQPENNYKTTPPVLDSDGSFFLYSKLTVPYDRWVWPDEFSCSVMHEALHNHYTQKSLSLSPG
light: DVVMTQTPLSLPVSLGDQASISCRSSQSLVHSNGNTYLRWYLQKPGQSPKVLIYKVSNRFSGVPDRFSGSGSGTDFTLKISRVEAEDLGVYFCSQSTHVPWTFGGGTKLEIKRTVAAPSVFIFPPSDEQLKSGTASVVCLLNNFYPREAKVQWKVDNALQSGNSQESVTEQDSKDSTYSLSSTLTLSKADYEKHKVYACEVTHQGLSSPVTKSFNRGEC
